The results in this text go back to patent US20210388102A1 (IMMUNOGEN, published 2021).

For experiment [1], the target named is T1, human ADAM9 (huADAM9) on cells (human, UniProt Q13443 206-819).
T1 construct: The pro-domain is said to be cleaved (Arg-205/Ala-206) in the mature protein; also called Cho-K/huADAM9; Cho-K/hu ADAM9.2
T1 sequence: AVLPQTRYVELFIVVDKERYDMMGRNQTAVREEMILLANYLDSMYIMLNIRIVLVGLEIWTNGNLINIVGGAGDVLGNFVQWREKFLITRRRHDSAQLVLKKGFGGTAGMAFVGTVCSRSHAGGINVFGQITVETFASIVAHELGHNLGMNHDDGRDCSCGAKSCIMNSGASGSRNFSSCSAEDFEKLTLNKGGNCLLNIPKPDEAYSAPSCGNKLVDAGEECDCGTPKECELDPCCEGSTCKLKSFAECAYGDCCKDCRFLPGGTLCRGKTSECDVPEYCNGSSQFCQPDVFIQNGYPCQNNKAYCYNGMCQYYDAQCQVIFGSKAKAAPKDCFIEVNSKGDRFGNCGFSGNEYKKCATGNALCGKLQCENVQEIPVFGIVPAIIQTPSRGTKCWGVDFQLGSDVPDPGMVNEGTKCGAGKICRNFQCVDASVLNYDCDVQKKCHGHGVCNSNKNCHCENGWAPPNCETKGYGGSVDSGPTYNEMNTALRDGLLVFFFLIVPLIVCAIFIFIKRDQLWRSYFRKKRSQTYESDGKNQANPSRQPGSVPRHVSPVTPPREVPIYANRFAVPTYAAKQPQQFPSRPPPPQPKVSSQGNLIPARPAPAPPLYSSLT
Briefly: FACS, 300-19 cells expressing human ADAM9.
Protocol: (§1) To evaluate the consequence of conjugation on antigen binding, the relative binding affinity of each anti-ADAM9 immunoconjugate and its respective unconjugated antibody to ADAM9 was determined by FACS analysis on 300-19 cells ectopically-expressing either human ADAM9 or cynomolgus ADAM9. Briefly, the ADAM9-expressing 300-19 cells were incubated with dilution series of anti-ADAM9 antibodies or immunoconjugates for 30 min @ 4° C. in FACS buffer (PBS, 0.1% BSA, 0.01% NaN₃), Samples were then washed and incubated with fluorescently-labeled secondary antibody for 30 minutes at 4° C. The normalized mean of fluorescence intensity at each concentration was plotted and the EC50 of binding was calculated using a nonlinear regression analysis (GraphPad Prims 4.0).

Experiment [2] addresses T2, cynomolgus monkey ADAM9 (cynoADAM9) on cells (cynomolgus monkey, UniProt Q13443 206-819 (human entry)).
T2 construct: also called Cho-K/cynoADAM9 clone 2; Cho-K/cynoADAM9 clone #16
T2 chain: T1 sequence with V69A, Q130H, G421D, V441I, S521R, G546V, A569P
Nature of the experiment: FACS, 300-19 cells expressing cynomolgus ADAM9.
Protocol: as §1

Experiment [3] concerns the target T3, His-tagged soluble human ADAM9 (shADAM9-His) (human, UniProt Q13443 206-697).
T3 construct: Contains an extracellular portion of human ADAM9; also called huADAM9-His; His peptide-tagged soluble huADAM9
T3 sequence: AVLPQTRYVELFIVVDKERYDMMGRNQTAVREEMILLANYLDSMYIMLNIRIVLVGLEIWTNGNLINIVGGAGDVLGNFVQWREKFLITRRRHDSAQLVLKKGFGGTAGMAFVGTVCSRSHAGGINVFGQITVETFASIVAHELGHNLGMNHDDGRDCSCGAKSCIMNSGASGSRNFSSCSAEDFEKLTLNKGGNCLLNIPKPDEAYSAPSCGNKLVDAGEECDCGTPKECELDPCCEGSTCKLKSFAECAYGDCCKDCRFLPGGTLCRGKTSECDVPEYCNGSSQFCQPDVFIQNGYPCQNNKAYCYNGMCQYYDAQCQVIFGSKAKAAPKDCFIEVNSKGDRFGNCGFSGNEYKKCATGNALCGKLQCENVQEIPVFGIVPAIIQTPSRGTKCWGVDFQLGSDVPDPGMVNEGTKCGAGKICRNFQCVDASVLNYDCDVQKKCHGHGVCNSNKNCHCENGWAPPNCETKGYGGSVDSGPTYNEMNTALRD
Nature of the experiment: SPR (BIACORE), antibody captured, huADAM9-His in flow.
Protocol: (§2) The kinetics of binding were determined via BIACORE® analysis binding (normalized 1:1 Langmuir binding model).

Experiment [4] addresses T2, cynomolgus monkey ADAM9 (cynoADAM9) on …. Briefly: FACS, EC50 on 300-19 cynoADAM9 cells over EC50 on 300-19 huADAM9 cells.
Protocol: as §1
Experiment [5] addresses T3, His-tagged soluble human ADAM9 …. Briefly: SPR (BIACORE), antibody captured on anti-human Fc, shADAM9-His 6.25-100 nM, 1:1 Langmuir.
Protocol: as §2
Experiment [6] shares this target. Briefly: ELISA: His-tagged soluble huADAM9 (0.5 µg/mL) captured by plate-coated anti-His antibody; serial dilutions of antibody about 0.2-500 ng/mL; abs @450nm.
Description: The binding of each Fc variant to huADAM9-His and cynoADAM9-His was examined by ELISA assay.
In experiment [7] the target is T1, human ADAM9 (huADAM9) on cells. Nature of the experiment: cell-based or functional assay.

Changes are numbered by the printed parent chain. Names may count otherwise.

B1: hMAB-A (2C.2) (antibody, human IgG1, kappa, V domains shown)
VH: EVQLVESGGGLVKPGGSLRLSCAASGFTFSSYWMHWVRQAPGKGLEWVGEIIPIFGHTNYNEKFKSRFTISLDNSKNTLYLQMGSLRAEDTAVYYCARGGYYYYPRFGWLDYWGQGTTVTVSS
VL: DIVMTQSPDSLAVSLGERATISCKASQSVDYSGDSYMNWYQQKPGQPPKLLIYAASDLESGIPARFSGSGSGTDFTLTISSLEPEDFATYYCQQSHEDPFTFGQGTKLEIKR
notes: IgG1 kappa; also called MAB-A VH(2C); MAB-A VH(2C.2)
In experiment [1], B1 showed an EC50 of 1.22 nM. In experiment [2], this molecule displayed an EC50 of 3.8 nM. In experiment [3], this molecule had a Kd of 1.4 nM, a koff of 0.00081 s⁻¹ and a kon of 590000 M⁻¹ s⁻¹. For the same molecule, the “cyno/human (ratio of EC50)” value in experiment [4] was 3.

B2: hMAB-A (4.4) (antibody, V domains shown)
VH: B1 VH with M34I, K63R, K65Q, S66G, P105G, R106S, F107R, G108D, W109Y, L110F
VL: DIVMTQSPDSLAVSLGERATISCRASQSVDYSGDSYLNWYQQKPGQPPKLLIYAASDLESGIPARFSGSGSGTDFTLTISSLEPEDFATYYCQQSYSTPFTFGQGTKLEIK
notes: also called hMAB-A VH(4)/hMAB-A VL(4)
For the molecule B2, the dissociation constant (Kd) in experiment [5] came to 2 nM.

B3: hMAB-A (2.3) (antibody, V domains shown)
VH: B1 VH with P105G, R106S, F107R, G108D, W109Y, L110F
VL: B2 VL with L37M, Y96H, S97E, T98D
notes: also called hMAB-A VH(2)/hMAB-A VL(3)
As for B3, the Kd in experiment [5] was 1.3 nM.

B4: hMAB-A (3.3) (antibody, V domains shown)
VH: B1 VH with K63R, K65Q, S66G, P105G, R106S, F107R, G108D, W109Y, L110F
VL: B2 VL with L37M, Y96H, S97E, T98D
notes: also called hMAB-A VH(3)/hMAB-A VL(3)
On to B4, for which binding in experiment [5] was characterised by a dissociation constant (Kd) of 1.4 nM.

B5: hMAB-A (2I.2)(AA) (antibody, human IgG1, kappa, L234A L235A)
heavy: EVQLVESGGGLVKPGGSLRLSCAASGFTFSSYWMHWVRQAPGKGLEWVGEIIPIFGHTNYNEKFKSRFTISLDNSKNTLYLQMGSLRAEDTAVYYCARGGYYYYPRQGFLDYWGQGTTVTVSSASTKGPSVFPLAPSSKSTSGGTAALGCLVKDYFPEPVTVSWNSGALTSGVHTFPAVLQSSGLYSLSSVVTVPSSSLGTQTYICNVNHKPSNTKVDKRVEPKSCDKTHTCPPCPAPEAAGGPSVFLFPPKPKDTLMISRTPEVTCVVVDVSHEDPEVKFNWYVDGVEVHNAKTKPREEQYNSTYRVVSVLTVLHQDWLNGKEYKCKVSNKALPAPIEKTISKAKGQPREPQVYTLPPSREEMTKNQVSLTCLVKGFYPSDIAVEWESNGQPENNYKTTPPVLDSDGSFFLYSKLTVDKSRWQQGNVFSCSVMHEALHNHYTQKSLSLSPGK
light: DIVMTQSPDSLAVSLGERATISCKASQSVDYSGDSYMNWYQQKPGQPPKLLIYAASDLESGIPARFSGSGSGTDFTLTISSLEPEDFATYYCQQSHEDPFTFGQGTKLEIKRTVAAPSVFIFPPSDEQLKSGTASVVCLLNNFYPREAKVQWKVDNALQSGNSQESVTEQDSKDSTYSLSSTLTLSKADYEKHKVYACEVTHQGLSSPVTKSFNRGEC
notes: Last residue X is lysine or absent; also called L234A/L235A Fc variant of hMAB-A (2I.2)
Regarding B5, the “EC50 (read off the curve)” value in experiment [6] was roughly 9 ng/mL.

B6: hMAB-A (1.1) (antibody, V domains shown)
VH: B1 VH with F55N, P105G, R106S, F107R, G108D, W109Y, L110F
VL: B2 VL with R24K, S32D, L37M, Y96H, S97E, T98D
notes: also called hMAB-A VH(1)/hMAB-A VL(1)
Consider B6, for which the Kd in experiment [5] was 3.5 nM.

B7: hMAB-A (2I.2)(AA/C) (antibody)
heavy: EVQLVESGGGLVKPGGSLRLSCAASGFTFSSYWMHWVRQAPGKGLEWVGEIIPIFGHTNYNEKFKSRFTISLDNSKNTLYLQMGSLRAEDTAVYYCARGGYYYYPRQGFLDYWGQGTTVTVSSASTKGPSVFPLAPSSKSTSGGTAALGCLVKDYFPEPVTVSWNSGALTSGVHTFPAVLQSSGLYSLSSVVTVPSSSLGTQTYICNVNHKPSNTKVDKRVEPKSCDKTHTCPPCPAPEAAGGPSVFLFPPKPKDTLMISRTPEVTCVVVDVSHEDPEVKFNWYVDGVEVHNAKTKPREEQYNSTYRVVSVLTVLHQDWLNGKEYKCKVSNKALPAPIEKTISKAKGQPREPQVYTLPPSREEMTKNQVSLTCLVKGFYPSDIAVEWESNGQPENNYKTTPPVLDSDGSFFLYSKLTVDKSRWQQGNVFSCSVMHEALHNHYTQKSLCLSPGK
light: B5 light
notes: Last residue X is lysine or absent; also called L234A/L235A/S442C Fc variant of hMAB-A (2I.2)
Consider B7, for which, in experiment [6], the “EC50 (read off the curve)” value is roughly 9 ng/mL.

B8: hMAB-A(2I.2)-S442C-DGN549 (antibody)
heavy: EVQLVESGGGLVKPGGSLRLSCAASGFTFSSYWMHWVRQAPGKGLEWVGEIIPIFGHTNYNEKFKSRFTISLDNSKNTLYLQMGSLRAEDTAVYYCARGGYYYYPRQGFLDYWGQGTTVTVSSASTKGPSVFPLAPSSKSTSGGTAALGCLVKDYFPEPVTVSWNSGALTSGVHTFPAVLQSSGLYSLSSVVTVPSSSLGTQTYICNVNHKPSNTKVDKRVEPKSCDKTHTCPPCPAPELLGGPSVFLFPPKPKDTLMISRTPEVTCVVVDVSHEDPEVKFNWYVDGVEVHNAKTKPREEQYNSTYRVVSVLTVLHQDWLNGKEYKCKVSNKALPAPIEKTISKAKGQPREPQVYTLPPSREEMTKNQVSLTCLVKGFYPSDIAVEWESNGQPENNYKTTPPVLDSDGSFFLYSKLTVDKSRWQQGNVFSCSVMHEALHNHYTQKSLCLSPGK
light: B5 light
modifications: DGN549-C (compound D5) on the engineered Cys S442C (EU index; 6th to the last residue of SEQ ID NO 142 when X is lysine); average 1.9 mol DGN549/mol antibody
notes: also called huMAB-A(2I.2)-S442C-DGN549
In the case of B8, in experiment [7], the “Fold-specificity (IC50 control ADC/IC50 anti-ADAM9 ADC), A498” value is greater than 1000 fold; the “Fold-specificity (IC50 control ADC/IC50 anti-ADAM9 ADC), DLD-1” value was greater than 1000 fold; the “Fold-specificity (IC50 control ADC/IC50 anti-ADAM9 ADC), DU145” value was greater than 1000 fold; the “Fold-specificity (IC50 control ADC/IC50 anti-ADAM9 ADC), HPAF2” value is greater than 1000 fold. In addition, in experiment [7], the “Fold-specificity (IC50 control ADC/IC50 anti-ADAM9 ADC), HS578T” value amounted to 646 fold; the “Fold-specificity (IC50 control ADC/IC50 anti-ADAM9 ADC), IGROV1” value is greater than 1000 fold; the “Fold-specificity (IC50 control ADC/IC50 anti-ADAM9 ADC), KATO III” value was greater than 1000 fold; the “Fold-specificity (IC50 control ADC/IC50 anti-ADAM9 ADC), NCI-H1703” value is greater than 1000 fold. Besides, in experiment [7], the “In Vitro Cytotoxicity (IC50 nM), A498” value came to 0.004 nM; the “In Vitro Cytotoxicity (IC50 nM), DLD-1” value turned out to be 0.045 nM; the “In Vitro Cytotoxicity (IC50 nM), DU145” value is 0.004 nM; the “In Vitro Cytotoxicity (IC50 nM), HPAF2” value was determined as 0.115 nM. In addition, in experiment [7], the “In Vitro Cytotoxicity (IC50 nM), HS578T” value turned out to be 0.017 nM; the “In Vitro Cytotoxicity (IC50 nM), IGROV1” value is 0.003 nM; the “In Vitro Cytotoxicity (IC50 nM), KATO III” value is 0.065 nM; the “In Vitro Cytotoxicity (IC50 nM), NCI-H1703” value came out at 0.004 nM. For the same molecule, in experiment [1], the EC50 was determined as 2.49 nM. Further, the midpoint of the response in experiment [2], the EC50, lay at 6.2 nM. The “cyno/human (ratio of EC50)” value in experiment [4] was found to be 2.

B9: chMAB-A (antibody, V domains shown)
VH: QVQLQQPGAELVKPGASVKLSCKASGYTFTSYWMHWVKQRPGQGLEWIGEIIPINGHTNYNEKFKSKATLTLDKSSSTAYMQLSSLASEDSAVYYCARGGYYYYGSRDYFDYWGQGTTLTVSS
VL: DIVLTQSPASLAVSLGQRATISCKASQSVDYDGDSYMNWYQQIPGQPPKLLIYAASDLESGIPARFSGSGSGTDFTLNIHPVEEEDAATYYCQQSHEDPFTFGGGTKLEIK
notes: also called chimeric version of MAB-A; chimeric chMAB-A
With B9, the EC50 in experiment [1] came to 0.41 nM; in experiment [2], 112 nM. Also, in experiment [4], the “cyno/human (ratio of EC50)” value stood at 273. In experiment [5], this molecule registered a Kd of 3.6 nM.

B10: hMAB-A(2I.2)-sSPDB-DM4 (antibody, human IgG1, kappa)
heavy: not shown
light: B5 light
modifications: lysine-linked DM4, sites not given; DM4 linked through sulfo-SPDB to lysine residues of the antibody, sites not given; average 3.5 mol DM4/mol antibody
On to B10, for which, in experiment [7], the “Fold-specificity (IC50 control ADC/IC50 anti-ADAM9 ADC), A498” value is 30 fold; the “Fold-specificity (IC50 control ADC/IC50 anti-ADAM9 ADC), DLD-1” value turned out to be 63 fold; the “Fold-specificity (IC50 control ADC/IC50 anti-ADAM9 ADC), DU145” value was 32 fold; the “Fold-specificity (IC50 control ADC/IC50 anti-ADAM9 ADC), HPAF2” value was 13 fold. Besides, in experiment [7], the “Fold-specificity (IC50 control ADC/IC50 anti-ADAM9 ADC), HS578T” value was determined as 20 fold; the “Fold-specificity (IC50 control ADC/IC50 anti-ADAM9 ADC), IGROV1” value worked out at 8 fold; the “Fold-specificity (IC50 control ADC/IC50 anti-ADAM9 ADC), KATO III” value turned out to be 11 fold; the “Fold-specificity (IC50 control ADC/IC50 anti-ADAM9 ADC), NCI-H1703” value was 132 fold. Besides, in experiment [7], the “In Vitro Cytotoxicity (IC50 nM), A498” value was determined as 0.108 nM; the “In Vitro Cytotoxicity (IC50 nM), DLD-1” value amounted to 0.386 nM; the “In Vitro Cytotoxicity (IC50 nM), DU145” value turned out to be 0.439 nM; the “In Vitro Cytotoxicity (IC50 nM), HPAF2” value came out at 0.422 nM. Moreover, in experiment [7], the “In Vitro Cytotoxicity (IC50 nM), HS578T” value worked out at 0.094 nM; the “In Vitro Cytotoxicity (IC50 nM), IGROV1” value is 1.41 nM; the “In Vitro Cytotoxicity (IC50 nM), KATO III” value was found to be 0.48 nM; the “In Vitro Cytotoxicity (IC50 nM), NCI-H1703” value was found to be 0.028 nM. In experiment [1], this molecule came in with an EC50 of 1.55 nM. In experiment [2], the EC50 came to 4.9 nM. The “cyno/human (ratio of EC50)” value in experiment [4] was 3.
